In test [1] the target is integrin αIIbβ3 exogenously expressed on CHO and COS-7 cells, P08514;P05106. In words: cell attachment assay (cells on protein-coated plate). The note with it: read off a plot.
The target in test [2] is integrin αvβ3 exogenously expressed on CHO and COS-7 cells, P06756;P05106. Described as above. As to conditions: read off a plot.
Test [3] has as its target integrin αvβ3 on HUVEC cells, P06756;P05106. The description is as above.
Test [4] addresses ProAgio (D1-CD2 variant 3) (not stated (human and rat D1-CD2 are named)) (UniProt P06729). In words: cell attachment assay; culture plates coated with ProAgio; cells cultured 35 min, washed three times, attached cells counted per view field; some runs with 5 μM Cilengitide or 40 μg/ml antibody LM609.
Test [5] has as its target ProAgio (D1-CD2 variant 3) (UniProt P06729). In words: cell attachment assay (cells on protein-coated plate). As to conditions: CHO cells expressing αvβ3 wild type or β3-KKQ; parent: est. 190; read off a plot; scale: cells attached/field.

Chain of ProAgio (D1-CD2 variant 3) (not stated (human and rat D1-CD2 are named)) (P06729 25-206, change not shown): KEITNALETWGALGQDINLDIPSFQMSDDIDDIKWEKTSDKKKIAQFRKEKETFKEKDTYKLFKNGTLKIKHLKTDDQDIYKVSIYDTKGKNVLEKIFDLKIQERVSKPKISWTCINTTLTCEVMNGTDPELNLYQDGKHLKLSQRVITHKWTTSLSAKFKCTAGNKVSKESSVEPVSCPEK

As for “D1-CD2 D99N; I102V; Q103I; E104I; E83T; T9V; W10Q; G11M; A12K”, the response (cells attached/field) in test [1] (CHO cells expressing αIIbβ3) amounted to 50; in test [1] (COS-7 cells expressing αIIbβ3) it was 50; in test [2] (CHO cells expressing αvβ3 (CHOαVβ3), parent: est. 100), 350; in test [2] (CHO cells expressing αvβ3), 280; in test [2] (COS-7 cells expressing αvβ3 (COS7αVβ3), parent: est. 90), 310; in test [2] (COS-7 cells expressing αvβ3) it was 350. Moreover, the response (cells attached/field) in test [3] (40 μg ml−1 antibody LM609 (bar is labelled 'Cilengitide' in the image), read off a plot) came out at 280; in test [3] (BSA as control, read off a plot) it was 310; in test [3] (IgG as control, read off a plot) it was 340; in test [3] (in the presence of 5 μM of Cilengitide, read off a plot), 230; in test [3] (parent: est. 45, read off a plot), 290.

In the case of “integrin αvβ5 expressed on COS-7 cells (from UniProt P06756 31-1048; P18084 24-799) (receptor)”, in test [4], the fold less attachment than αvβ3-expressing cells is above 3 fold.

Turning to “integrin αvβ3 exogenously expressed on CHO and COS-7 cells (from UniProt P06756;P05106) β3-KKQ”, the response in test [5] stood at 44.

For the origin of these results see article PMC4895024.
